Our source for the denaturant m value and unfolding free energy values is FireProtDB (doi:10.1038/9384).

The conditions of this series: Bos taurus; pH 5.3; 5 °C; GdnHCl; Fluorescence; Sodium acetate 0.02 M; whole UniProt chain shown.

B1: Acyl-CoA-binding protein wild type, P07107 (protein)
chain: MSQAEFDKAAEEVKHLKTKPADEEMLFIYSHYKQATVGDINTERPGMLDFKGKAKWDAWNELKGTSKEDAMKAYIDKVEELKKKYGI
Take B1: the denaturant m value is 3.53 kcal/mol/M and the unfolding free energy turned out to be 8.08 kcal/mol.
